Reference: patent US20250346895A1, “GENETIC SEQUENCE-CARBOHYDRATE CONJUGATES FOR ENHANCED LIVER- AND KIDNEY-SPECIFIC TARGETING” (University of Connecticut, priority 2022, published 2025)

Columns and labels:
[1] = Kidney-targeted delivery of full-length (22mer) anti-miR-21 PNA: biodistribution (IVIS, flow cytometry); type: in vivo, C57BL/6J mice
Experimental: FIG. 9 illustrates that LBAAc ligand efficiently delivered a 22mer long PNA sequence to the kidney. […] PNA 6 contains succinic acid (SA) at 5′ end for conjugation with LBA-lysine conjugate. Lysine (K) was added on the 3′ end of the PNA followed by fluorescent probe 5-carboxytetramethylrhodamine (TAM) of each PNA. 000 represents the trioxo-miniPEG linker. […] Radiant Efficiency for TAMRA fluorescence in the kidneys of C57BL6/J mice. Results are represented as mean of n=2 with standard error mean as the error bars.
Full-length (22mer) PNA oligomers were designed and synthesized namely PNA 5, PNA 6 and LBAAc conjugate (PNA 6-LBAAc) to target miR-21 (FIG. 9A). PNA 6 was conjugated with LBAAc as described in FIG. 2A.
Biodistribution evaluation of PNA 5 and PNA 6-LBAAc in C57BL/6J mice at a low subcutaneous dose of 1.5 mg/kg (1/10 molar equiv of short PNA 1&2): A lower dose biodistribution was chosen for a comprehensive validation of LBAAc for kidney targeting. […] (FIG. 9D). Results were confirmed by flow cytometry analysis of kidney cells. The kidney cells obtained after RBC lysis were fixed with 4% PFA and analyzed for TAMRA fluorescence. The histogram plots representing the TAMRA fluorescence from 4 and 24 h samples confirmed the elimination of PNA 5 and accumulation of PNA 6-LBAAc in the kidney cells (FIG. 9C). […] Possibly the Tmax for kidney accumulation of PNA 6-LBAAc is >4 h. Decisively, the higher concentration of PNA 6-LBAAc in the kidney at 24 h compared to 4 h time point against PNA 5 confirmed the kidney targeting and potential of the LBAAc ligand.

HepG2 cells = assay: In vitro cellular uptake in HepG2 cells; type: cell-based

Compound: CC(=O)OC[C@H]1O[C@@H](O[C@@H]([C@H](OC(C)=O)[C@@H](OC(C)=O)C(=O)NCCCC[C@H](NC(=O)[C@H](OC(C)=O)[C@@H](OC(C)=O)[C@H](O[C@@H]2O[C@H](COC(C)=O)[C@H](OC(C)=O)[C@H](OC(C)=O)[C@H]2OC(C)=O)[C@@H](COC(C)=O)OC(C)=O)C(=O)NCCCCCCNC(=O)CCC(=O)NCCOCCOCCOCC(=O)NCCN(CC(=O)NCCN(CC(=O)NCCN(CC(=O)NCCN(CC(=O)NCCN(CC(=O)NCCN(CC(=O)NCCN(CC(=O)NCCN(CC(=O)NCCN(CC(=O)NCCN(CC(=O)NCCN(CC(=O)NCCN(CC(=O)NCCN(CC(=O)NCCN(CC(=O)NCCN(CC(=O)NCCN(CC(=O)NCCN(CC(=O)NCCN(CC(=O)NCCN(CC(=O)NCCN(CC(=O)NCCN(CC(=O)NCCN(CC(=O)N[C@@H](CCCCNC(=O)COCCOCCOCCNC(=O)c2ccc(-c3c4ccc(=[N+](C)C)cc-4oc4cc(N(C)C)ccc34)c(C(=O)[O-])c2)C(N)=O)C(=O)Cn2cnc3c(N)ncnc32)C(=O)Cn2cc(C)c(=O)[nH]c2=O)C(=O)Cn2ccc(N)nc2=O)C(=O)Cn2cnc3c(=O)[nH]c(N)nc32)C(=O)Cn2cnc3c(N)ncnc32)C(=O)Cn2cnc3c(N)ncnc32)C(=O)Cn2cc(C)c(=O)[nH]c2=O)C(=O)Cn2cnc3c(N)ncnc32)C(=O)Cn2cnc3c(=O)[nH]c(N)nc32)C(=O)Cn2cc(C)c(=O)[nH]c2=O)C(=O)Cn2ccc(N)nc2=O)C(=O)Cn2cc(C)c(=O)[nH]c2=O)C(=O)Cn2cnc3c(=O)[nH]c(N)nc32)C(=O)Cn2cnc3c(N)ncnc32)C(=O)Cn2ccc(N)nc2=O)C(=O)Cn2cc(C)c(=O)[nH]c2=O)C(=O)Cn2cnc3c(N)ncnc32)C(=O)Cn2ccc(N)nc2=O)C(=O)Cn2cnc3c(N)ncnc32)C(=O)Cn2cnc3c(N)ncnc32)C(=O)Cn2ccc(N)nc2=O)C(=O)Cn2cc(C)c(=O)[nH]c2=O)[C@@H](COC(C)=O)OC(C)=O)[C@H](OC(C)=O)[C@@H](OC(C)=O)[C@H]1OC(C)=O [PNA 6-LBAAc]
- organ distribution of TAMRA fluorescence signal (IVIS) ([1]; 1.5 mg/kg subcutaneous): limited to the kidney only
- overall pharmacokinetics / biodistribution ([1]; 1.5 mg/kg subcutaneous): slower biodistribution
- increase in kidney retention compared to unconjugated PNA 5 ([1]; 1.5 mg/kg subcutaneous, 24 h): 4 fold
- kidney concentration at 24 h ([1]; 1.5 mg/kg subcutaneous, 24 h): concentration increased in the kidney
- TAMRA fluorescence in kidney cells (flow cytometry) ([1]; 4 and 24 h samples): accumulation
- Tmax ([1]; mouse, in vivo, sc, 1.5 mg/kg subcutaneous, read-out: Tmax for kidney accumulation): > 4 h

Compound: O=C(O)[C@H](O)[C@@H](O)[C@H](O[C@@H]1O[C@H](CO)[C@H](O)[C@H](O)[C@H]1O)[C@H](O)CO [LBA, lactobionic acid]
- cellular uptake (HepG2 cells): ASGPR mediated cellular uptake

Compound: tris N-acetylgalactosamine [tGalNAc, reference compound]
- cellular uptake (HepG2 cells): ASGPR mediated cellular uptake
